Measured values published in PMC10957665, “The C-terminal selenenylsulfide of extracellular/non-reduced thioredoxin reductase endows this protein with selectivity to small-molecule electrophilic reagents under oxidative conditions” (Frontiers in Molecular Biosciences, 2024).

Key:
[1] = target: the molecule itself; test: cross-linking; diamide-induced covalent (disulfide/selenenylsulfide) complex: TrxR1 or a TrxR1 mutant with a 2-fold concentration of hTrx1, or one protein alone, 10 mM diamide, 30 min at room temperature; non-reducing SDS-PAGE, Coomassie stain
[2] = target: the molecule itself; test: cross-linking; H2O2 as thiol oxidant in place of diamide; unpublished (Zhong's observation)

Protein | stoichiometry N [1] | stoichiometry N [2]
Cys73Ala mutant of hTrx1 (natural protein, human, UniProt P10599 1-105, looked up, Human cytosolic thioredoxin (hTrx1) with Cys73 replaced by Ala; also called hTrx1 mutant in which Cys73 was substituted by Ala) MVKQIESKTAFQEALDAAGDKLVVVDFSATWCGPCKMIKPFFHSLSEKYSNVIFLEVDVDDCQDVASECEVKAMPTFQFFKKGQKVGEFSGANKEKLEATINELV | 2 | –
human cytosolic thioredoxin (hTrx1) (natural protein, UniProt P10599 1-105, looked up, Human cytosolic thioredoxin (hTrx1); freshly DTT-treated, free thiol on surface Cys73; also called human cytosolic Trx; source: purified according to a previously described method (Zhai and Zhong, 2010); incubated with DTT and dialysed before use) MVKQIESKTAFQEALDAAGDKLVVVDFSATWCGPCKMIKPFFHSLSEKYSNVIFLEVDVDDCQDVASECEVKCMPTFQFFKKGQKVGEFSGANKEKLEATINELV | – | 2
